According to patent US20190015473A1 (MIT, published 2019):

Target: T1, Sin3A, endogenous in Neuro2A cells (UniProt Q60520 1-1274, limits assumed)
T1 sequence (looked up): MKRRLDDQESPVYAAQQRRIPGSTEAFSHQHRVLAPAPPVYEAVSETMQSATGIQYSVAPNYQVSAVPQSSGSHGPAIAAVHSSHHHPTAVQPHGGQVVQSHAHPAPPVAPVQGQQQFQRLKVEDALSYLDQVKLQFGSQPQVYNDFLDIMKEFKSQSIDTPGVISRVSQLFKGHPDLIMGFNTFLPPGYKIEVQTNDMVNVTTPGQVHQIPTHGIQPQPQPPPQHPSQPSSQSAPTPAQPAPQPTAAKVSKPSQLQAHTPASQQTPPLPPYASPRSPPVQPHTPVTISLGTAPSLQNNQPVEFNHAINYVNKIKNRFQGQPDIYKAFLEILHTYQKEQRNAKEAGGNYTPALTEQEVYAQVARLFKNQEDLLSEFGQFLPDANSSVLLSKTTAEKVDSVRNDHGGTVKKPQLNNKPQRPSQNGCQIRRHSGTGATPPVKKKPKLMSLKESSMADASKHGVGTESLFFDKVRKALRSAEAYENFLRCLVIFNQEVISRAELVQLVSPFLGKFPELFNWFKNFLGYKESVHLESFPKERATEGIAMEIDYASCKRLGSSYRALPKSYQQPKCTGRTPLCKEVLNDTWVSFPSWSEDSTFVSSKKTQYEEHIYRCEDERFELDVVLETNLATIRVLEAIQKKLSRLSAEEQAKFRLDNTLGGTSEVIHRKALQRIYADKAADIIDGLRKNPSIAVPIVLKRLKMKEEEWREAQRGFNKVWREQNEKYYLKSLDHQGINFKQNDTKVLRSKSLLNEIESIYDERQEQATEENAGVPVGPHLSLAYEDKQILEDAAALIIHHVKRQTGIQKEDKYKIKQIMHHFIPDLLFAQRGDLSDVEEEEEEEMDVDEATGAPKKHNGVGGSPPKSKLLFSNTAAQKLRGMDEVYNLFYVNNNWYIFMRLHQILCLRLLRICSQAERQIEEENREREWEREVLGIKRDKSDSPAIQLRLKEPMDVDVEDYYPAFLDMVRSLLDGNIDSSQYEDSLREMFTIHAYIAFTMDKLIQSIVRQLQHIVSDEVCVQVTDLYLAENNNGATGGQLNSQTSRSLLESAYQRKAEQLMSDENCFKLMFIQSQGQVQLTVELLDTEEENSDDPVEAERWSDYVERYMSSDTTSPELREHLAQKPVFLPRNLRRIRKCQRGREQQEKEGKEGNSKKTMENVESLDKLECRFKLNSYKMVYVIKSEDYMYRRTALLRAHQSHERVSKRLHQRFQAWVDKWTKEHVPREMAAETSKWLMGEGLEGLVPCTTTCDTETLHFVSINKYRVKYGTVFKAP
Experiment: co-immunoprecipitation (anti-Flag) from transfected N2A cells, western blot
Procedure: Brain tissues or cell pellets were lysed in 50 mM Tris-HCl (pH8.0), 150 mM NaCl, 1 mM EDTA, 1% NP-40, and complete protease inhibitor cocktail (Roche) with 20 strokes using the Dounce tight homogenizer. After centrifugation at 10000×g twice for 10 min, supernatants were subjected to co-immunoprecipitation or western blot analysis (Bio-rad). Two micrograms of anti-HDAC2 antibody (ab12169) or 15 μL of anti-Flag M2 affinity gels (Sigma) were used for immunoprecipitations. The antibodies used for immunoblotting were anti-HDAC2 (1 μg/mL, ab12169), anti-Sp3 (1 μg/mL, sc-644 X), anti-Sin3A (1 μg/mL, Abcam; ab3479), and […] (1:500, Sigma; F2043).
If the divergent C-terminus of HDAC2 alone is capable of binding to Sp3, the HDAC2-Sp3 interaction may potentially be inhibited through over-expression of this domain. To test this, the C-terminal domain of either HDAC2 (termed 2C) or HDAC1 (termed 1C) fused with mCherry, or mCherry alone, was transfected into neuronal N2A cells. Using co-IP experiments it was shown that 2C, but not 1C or mCherry alone, robustly bound to endogenous Sp3 (FIG. 6A). Importantly, binding of 2C to Sin3A, a well characterized partner of the HDAC1/2 complexes that controls cell cycle progression, was not detected.

B1: C-terminal domain of HDAC2 (termed 2C) fused with mCherry, flag-tagged (other, UniProt Q92769 390-488, looked up)
chain: VHEDSGDEDGEDPDKRISIRASDKRIACDEEFSDSEDEGEGGRRNVADHKKGAKKARIEEDKKETEDKKTDVKEEDKSKDNSGEKTDTKGTKSEQLSNP
notes: The part order follows the printed name 'mCherry-2C'; the Flag position is unknown; also called mCherry-2C; HDAC2 C-terminal fragment (2C); not shown: Flag tag; mCherry (engineered red fluorescent protein)
  binding result: no binding
